Source: the nanobody polyreactivity screen of Harvey et al. (2022)

Assay: yeast display, Sf9 membrane polyspecificity reagent, FACS + sequencing; frameworks hold sequencing errors
How it was run: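 Galactose-induced (36–48 hours) yeast carrying a synthetic nanobody display library were exposed to 10% biotinylated, detergent-solubilized Sf9 membrane reagent at 4 °C for 1 hour. FACS followed streptavidin microbead enrichment, using low and high (top ~1%) gates for expression (anti-HA) and reagent binding (streptavidin). Colony PCR, MiSeq 2 × 250 sequencing and CDR-length filtering followed. Labels for polyreactivity reflect the gate of origin.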

| Sequence | polyreactivity (PSR sort gate) |
| --- | --- |
| QVQLVESGGGLVQAGGSLRLSYAASGSTFRVYAMGWYRPATGKERELVAAISRSGGRTYYADSVKGRFTISRDNAKNTVYLQMNSLKPEDTAVYYCAADYKYTAVSDDYWGQGTQVTVSS | high polyreactivity |
| QVQLVESGGGLVQAGGSLRLTCAASGFIFGYNAMGWYRQAPGKERELVAAISSSGGSTYYADSVKGRFTISRDNAKNTVSLQMNSLKPEDTAVYYCAARPVALRKYDYWGQGTQVTVSS | low polyreactivity |
| QVQLVESGGGLVQAGGSLRLTCAASGFIFRYYAMGWYRQAHGKEMELVAAIDYSGGSTNYADSVKGRFTISRDNSKNTVYLQMNSLKPEDTAVYYCKAEYTWHRGYDYWGLGTQVTVSS | low polyreactivity |
| QVQLVESGGGLVQAGGSLRLTCAASGFTFNRYTMGWYRQAPGKERELVAAITRSGGSTYYADSVKGRFTISRDNAKNTVDLQMNSLKPEDTAVYYCAAPSYLVAGYGYWGQGTQVTLSS | high polyreactivity |
| QVQLVESGGGLVQAGGSLRLTCAASGFTFPSYPMVWYRQAPGKERELVAAITRSGVRTYYADSVKGRFTISRDNAKNTVYFQMNSLKPEDTAVYYCAAVYPRQVSQVWRDDFWGQGTQVTVSS | high polyreactivity |
| QVQLVESGGGLVQAGGSLRLTCAASGFTFRYYAMGWYRQAPGKERELVASITGGGRTYYADSVKGRFTISRDNAKNTVYLQMNSLKPEDTAVYYCATLLAYRLGSGYDSWGQGTEVTVSS | high polyreactivity |
| QVQLVESGGGLVQAGGSLRLTCAASGFTFSQYVMGWYRQAPGKERELVAAISYRGGSTYYADSVKGRFTISRDKAKNTVYLQLNSLKPEDTAVYYCAAVAYSWHNRYDYWGQGTQVTVSS | high polyreactivity |
| QVQLVESGGGLVQAGGSLRLTCAASGFTFTGNAMGWYRQAPGKEREFVAAISWSGGSTYYADSVKGRFTISRDNAKNTVYLQMNSLKPEDTAVYYCNKYRPYGRIYHLAYGRDYWGQGTQVTVSS | high polyreactivity |
| QVQLVESGGGLVQAGGSLRLTCAASGFTFWWYTMGWYRQATGKERELVATITSGGRTNYADSVKGRFTISRDNAKNTVYLQMNSLKPEDTAVYYCNRVAYYSRYDTDDYWGQGTQVTVSS | high polyreactivity |
| QVQLVESGGGLVQAGGSLRLTCAASGFTIAWNAMGWYRPSPGKERELVAAISAGGGSTYYADSVKGRFTISRDNAKNTVYLQMNSLKPEDTAVYYCAARRTFKYGSYAYYYWGQGTQVTVSS | high polyreactivity |
| QVQLVESGGGLVQAGGSLRLTCAASGGIFSYNAMGWYRQAPGKERELVAAISDSSTRTYYADSVKGRFTISRDNAKNTVYLQIKSLKPEDTAVYYCAARHSRTRHTSDYWGQGTQVTVSS | high polyreactivity |
| QVQLVESGGGLVQAGGSLRLTCAASGGIFYKYAKGWYRQAPGKEMELVAAITGRGGSTNYADSVKVRFTISRDNAKNTVYLQMNSLKPEDTAVYYCAARYTPTWSYGYWGQGTQVTVSS | low polyreactivity |
| QVQLVESGGGLVQAGGSLRLTCAASGIIFRVYAMGWYRQATGKERELVAAISQRGGSTYYADSVKGRFTISRDNAKNTVYLLMNSLKPEDTAVYYCAATAPAAAYRARYGYDYWGQGTQVTVSS | high polyreactivity |
| QVQLVESGGGLVQAGGSLRLTCAASGITFGGYAMGWYRQAPGKERELVATITSGGSTYYADSVKGRFTISRDNAKNTVYLQMNSLKPEDTAVYYCNAVYNYWFWGGYWHRPNARGDYWGQGTQVTVSS | high polyreactivity |
| QVQLVESGGGLVQAGGSLRLTCAASGITFVYNAMGWYRQAPGKERELVAAISWRGGSTYYADYVKGRFTISRDNAKNTVYLQMNSLKPEDTAVYYCNNLPTYPDYGYDSWGQGTQVTVSS | high polyreactivity |
| QVQLVESGGGLVQAGGSLRLTCAASGLIFGYNAMGWYRQAPGKEREFVAGISVIDGRTYYADSVKGRFTISRDNAKNTVYLQMISLKPEDTAVYYCAADRWYKYYFLTYGYWGQGTQVTVSS | low polyreactivity |
| QVQLVESGGGLVQAGGSLRLTCAASGLSSLRMLWDGIDRRLGKKGSWLPLLTSGGDSTNYADSVKGRFTISRDTAKNTVYLQIISLKPEDTAVYYCAADLDYPYGYWGQGTQVTVSS | low polyreactivity |
| QVQLVESGGGLVQAGGSLRLTCAASGLTFPSYSMGWYRQAPGKERELVAAIYYSGGSTYYADSVKGRFTISRDNAKITVYIHMNSLKPEDTAVYYCAADFTSFFNRIDYWGQGTQVTVSS | low polyreactivity |
| QVQLVESGGGLVQAGGSLRLTCAASGNIFYSYAMGWYRQAPGKERELVAAITIDGSTTYADSVKGRFTISRDNAKNTVYLQMNSLKPEDTAVYYCAKEGEAYPATYRYQFDYWGQGTQVTVSS | low polyreactivity |
| QVQLVESGGGLVQAGGSLRLTCAASGNTFDYYAMGWYRQAPGKERELVAAITRGGSTNYADSVKGRFTISRDNAKNTVYLQMNSLKPEDTAVYYCAAEQRAPRFADYDYWGQGTQVTVSS | low polyreactivity |
| QVQLVESGGGLVQAGGSLRLTCAASGNTFVSNAMGWYRQAPGKERELVAAINSGGSTNYADSVKGRFTISRDNAKNTVYLQMNSLKPEDTAVYYCNKDYDYPQRYWMDFWGQGTQVTVSS | low polyreactivity |
| QVQLVESGGGLVQAGGSLRLTCAASGNTFYGYAMGWYRQAPGKERELVASITLSGDSTYYADSVKGRFTISRDNAKNTVYLQMNSLKPEDTAVYYCAGVYTYPLGYFHYTYDYWGQVTQVTVSS | low polyreactivity |

| Sequence | polyreactivity (PSR sort gate) |
| --- | --- |
| QVQLVESGGGLVQAGGSLRLTCAASGRIFGTNAMGWYRQAPGKERELVADITSGGSTNYADSVKGRFTISRDNAKNTVYLLMNSLKPEDTAVYYCAADVIGDLRWYRDEYWGQGTQVTVSS | low polyreactivity |
| QVQLVESGGGLVQAGGSLRLTCAASGRIFGVYVMGWYRQAPGKERELVAAISWGGGTYYADSVKGRFTISRDNAKNNVYLQMNSLKPEDTSVYYCNAESYYTMYYWGQGTQVNVSS | low polyreactivity |
| QVQLVESGGGLVQAGGSLRLTCAASGRIFNAYAMGWYRQAPGKEREFVAAISYTVGSTYYADTVKGRFTISRDNAKITVNLQMISLKPEDTAVYYCAATGWDYYGGYDYWGQGTQVTVSS | high polyreactivity |
| QVQLVESGGGLVQAGGSLRLTCAASGRIFPRNTMGWYRQAPGKERELVAAISVSGGSTYYADSVKGRFTNSRDNAKNTVYLQMNSLKPEDTAVYYWAARSARLEYYYWGQGTQVTVSS | high polyreactivity |
| QVQLVESGGGLVQAGGSLRLTCAASGRIFVYNAMGWYRQAPGKESEFVATITSSGGRTYYADSVKGRFTISRDNAKNTVYLQMNSLKTEDTAVYDCAASPHNYGRNTVYRYKYWGQGTQVTVSS | high polyreactivity |
| QVQLVESGGGLVQAGGSLRLTCAASGRIFYHYAMGWYRQATGKERELVATISGAGSTHYADSVKGRFTISRDNAKNTVYLQMNSLKAEDTAVYYCNADTYLIRYWSMLEYWGQGTQVTVSS | low polyreactivity |
| QVQLVESGGGLVQAGGSLRLTCAASGRILDRYVMGWYRQAPGKERELVAAISQSGRGTYYADSVKGRFTISRDNAKNTVYLQMNSLKPEVTAVYYCAARGTGYHGYGYWGQGSQVTVSS | high polyreactivity |
| QVQLVESGGGLVQAGGSLRLTCAASGRIYTYNAMGRYRKAPGKERELVATITWRGGGTYYADSVKGRFTISRDNAKNTVYLQMNSLKPEDTAVYYCIRRLPGDGQYGYRRFDYWGQGTQVTVSS | low polyreactivity |
| QVQLVESGGGLVQAGGSLRLTCAASGRTFARNAMGWYRQAPGKERELVAAITRSGGSTYYADSVKGRFTISRDNAKNTVYLQMNSLKPEDTAVYYCAADVRTYRGYYWKAFDYWGQGTQVTVSS | high polyreactivity |
| QVQLVESGGGLVQAGGSLRLTCAASGRTFFYNAMGWYRPAPGKERELVAAISWSGGRTYYADSVKGRFTISRDNAKNTVYLQMNSLKPEDTAVYYCASTGFYSSHYHLDYWGQGTQLTVSS | high polyreactivity |
| QVQLVESGGGLVQAGGSLRLTCAASGRTFGTYAMGWSRQAPGKERELVAVITNGGGTYYADSVKGRFTISRDNAKNTVYLQMNSLKPEDTAVYYCNTDRYGLRRWVYSYWGGYDYWGQGTQVTVSS | low polyreactivity |
| QVQLVESGGGLVQAGGSLRLTCAASGRTFKGYAMGWYRQEPGKERELVAAISYRGGSTYYADSVKGRFTISRDNAKNTVYLQMNSLKPEDTAVYYCAAQGRSKYRGYYYWGQGTQVTVSS | high polyreactivity |
| QVQLVESGGGLVQAGGSLRLTCAASGRTFPGNAMGWYRQAPGKERELVAAISWSVDRTYYADSVKGRFTISRDNAKNTVYLQMNSLKPEDTAVYYCAAVHWWSSSLRMYYWGQGTQVTVSS | low polyreactivity |
| QVQLVESGGGLVQAGGSLRLTCAASGRTFQYYVMVWYRQAPGKEREFVAAISTSGGRTYYADSVKGRFTISRDNAKNSVYLQMNSLKPEATAVYYCAATGFSYRYFQTRDYWGQGTQVTVSS | high polyreactivity |
| QVQLVESGGGLVQAGGSLRLTCAASGRTFRIYAMGWYRQAPGKERELVAAITRRGGSTYYADSVKGRFTISLDNAKNTVNLQMNSLKPEDTAVYYCAAELRYGYLYPYDSWGQGTQVTVSS | high polyreactivity |
| QVQLVESGGGLVQAGGSLRLTCAASGRTFRSYAMGWYRQAPGKERELVAAISDGGSTNYADSVKGRFTISRDNAKNTVYLQMNSLKPEDTAVYYCAAEIFFAVFRFYYWGQGTQVTVSS | low polyreactivity |
| QVQLVESGGGLVQAGGSLRLTCAASGRTLRNYAMGWYRQPPGKERELVATITYRGGSTYYADSVKGRFTISRDNAKNTVYLKRNCLKPEDTAVYYCAARTSSYSFQYAYNYWGQGTQVTVSS | high polyreactivity |
| QVQLVESGGGLVQAGGSLRLTCAASGRTLVPYVMGWYRQAPGKERELVASITSGGSTYYADSVKGRFTISRDNAKNTVYLQMNSLKPEDTAVYYCATRQSAERWGYYYWGQGTQVTVSS | low polyreactivity |
| QVQLVESGGGLVQAGGSLRLTCAASGSIFGTYAMGWYRQAPGKERQLVAAISWSDGSTYYADSVKGRFTISRDTAKNTFYLQMNSRKPEDTAVEYCAKVYRSIGPNVSRYGLSYYDWGHGTQVTVSS | low polyreactivity |
| QVQLVESGGGLVQAGGSLRLTCAASGSIFNGYAMGCYRQAPGKERELVAAIRTRGGSTYYADSVKGRFTISRDIAMNTVYLQMNSLKPEDTAVYYCAKRYFGWYGNFDYWGQGTQVTVSS | high polyreactivity |
| QVQLVESGGGLVQAGGSLRLTCAASGSIFRDNVMGWSRQAPGKERELVAAISKRGGSTYYADSVKGRFTISRDNAKNTVYLQMNSLKPEDTAVYYCAAPQGRSHYYRYDYWGQGTQVTVSS | high polyreactivity |
